# Results from patent EP4556018A1 (OSAKA UNIVERSITY, dated 2025).
# B1: endogenous Foxp3 of mouse Treg cells (other, UniProt Q99JB6 1-429, looked up)
# chain: MPNPRPAKPMAPSLALGPSPGVLPSWKTAPKGSELLGTRGSGGPFQGRDLRSGAHTSSSLNPLPPSQLQLPTVPLVMVAPSGARLGPSPHLQALLQDRPHFMHQLSTVDAHAQTPVLQVRPLDNPAMISLPPPSAATGVFSLKARPGLPPGINVASLEWVSREPALLCTFPRSGTPRKDSNLLAAPQGSYPLLANGVCKWPGCEKVFEEPEEFLKHCQADHLLDEKGKAQCLLQREVVQSLEQQLELEKEKLGAMQAHLAGKMALAKAPSVASMDKSSCCIVATSTQGSVLPAWSAPREAPDGGLFAVRRHLWGSHGNSSFPEFFHNMDYFKYHNMRPPFTYATLIRWAILEAPERQRTLNEIYHWFTRMFAYFRNHPATWKNAIRHNLSLHKCFVRVESEKGAVWTVDEFEFRKKRSQRPNKCSNPCP
# notes: Immunoprecipitated with anti-Foxp3 antibody from Treg cell lysates
# B2: Myc-Foxp3 (other, UniProt Q99JB6 1-429, looked up)
# chain: B1 chain
# notes: Forcedly expressed in HEK293T cells; not shown: Myc tag
# Tests used:
# [1] = target: T1, HDAC1 of mouse Treg cells (mouse, UniProt O09106 1-482); assay: immunoprecipitation of endogenous Foxp3 from Ikzf1-expressing mouse Treg cells, Simple Western
# T1 construct: also called HDAC1 protein
# Flag-IkΔE5 = target: T2, Flag-IkΔE5 (Mus musculus, UniProt Q03267 1-517, limits assumed); assay: co-immunoprecipitation with anti-Flag-M2 antibody from HEK293T lysate, Western blot with anti-c-Myc
# T2 construct: Forcedly expressed in HEK293T cells; also called ΔE5 variant; Ikzf1ΔE5; not shown: Flag tag
# T2 sequence (Q03267 other isoform, or with tags, fused parts or gaps mutant limits assumed): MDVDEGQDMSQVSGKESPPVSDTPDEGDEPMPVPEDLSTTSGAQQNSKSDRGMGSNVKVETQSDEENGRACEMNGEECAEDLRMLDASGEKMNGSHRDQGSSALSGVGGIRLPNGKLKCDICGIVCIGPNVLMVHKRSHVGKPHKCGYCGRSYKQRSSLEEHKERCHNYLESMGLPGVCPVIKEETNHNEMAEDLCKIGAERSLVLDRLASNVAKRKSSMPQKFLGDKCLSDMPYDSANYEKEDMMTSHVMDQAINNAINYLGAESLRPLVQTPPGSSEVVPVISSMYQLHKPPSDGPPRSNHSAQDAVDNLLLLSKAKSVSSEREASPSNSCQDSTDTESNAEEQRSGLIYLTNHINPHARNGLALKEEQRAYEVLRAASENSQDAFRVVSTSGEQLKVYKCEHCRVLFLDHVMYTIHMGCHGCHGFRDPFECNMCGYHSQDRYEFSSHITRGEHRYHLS
# T1 sequence (O09106 whole entry): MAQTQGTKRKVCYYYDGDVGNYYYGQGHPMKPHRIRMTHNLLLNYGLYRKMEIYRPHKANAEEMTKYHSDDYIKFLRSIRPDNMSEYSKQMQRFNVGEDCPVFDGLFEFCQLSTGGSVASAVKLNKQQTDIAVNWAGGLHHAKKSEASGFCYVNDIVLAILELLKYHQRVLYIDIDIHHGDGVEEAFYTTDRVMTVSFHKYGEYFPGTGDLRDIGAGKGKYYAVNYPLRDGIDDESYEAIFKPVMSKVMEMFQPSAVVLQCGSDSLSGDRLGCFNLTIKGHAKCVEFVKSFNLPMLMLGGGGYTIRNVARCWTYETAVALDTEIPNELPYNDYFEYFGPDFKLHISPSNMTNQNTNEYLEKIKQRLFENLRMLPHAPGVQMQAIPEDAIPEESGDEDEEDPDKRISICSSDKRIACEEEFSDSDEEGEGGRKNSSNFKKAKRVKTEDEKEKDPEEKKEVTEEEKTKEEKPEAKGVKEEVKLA
Binder,binding result [1],binding result (Flag-IkΔE5)
B1,binds,
B2,,no binding
